T1: D2 domain of human LAG-3 (human, UniProt P18627 169-260)
T1 sequence: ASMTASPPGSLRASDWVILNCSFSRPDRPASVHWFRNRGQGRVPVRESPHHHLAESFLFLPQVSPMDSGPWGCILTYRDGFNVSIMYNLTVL


What was measured:
[1] = molecular target: HA glycoprotein of A/Puerto Rico/8/1934 (H1N1) influenza virus, purified (influenza virus A/Puerto Rico/8/1934 …, UniProt P03452 18-528); test: ELISA, plate coated with the fusion protein
D2 domain of human LAG-3 = molecular target: T1, D2 domain of human LAG-3; test: not described

Binder	binding result [1]	binding result (D2 domain of human LAG-3)
KIR2DL1 fused to the IgG1 Fc domain (Fc fusion) HEGVHRKPSLLAHPGRLVKSEETVILQCWSDVMFEHFLLHREGMFNDTLRLIGEHHDGVSKANFSISRMTQDLAGTYRCYGSVTHSPYQVSAPSDPLDIVIIGLYEKPSLSAQLGPTVLAGENVTLSCSSRSSYDMYHLSREGEAHERRLPAGPKVNGTFQADFPLGPATHGGTYRCFGSFHDSPYEWSKSSDPLLVSVTGNPSNSWPSPTEPSSKTGNPRHLH	no binding	
23DKTYB4 (antibody, V domains shown) VH: QVQLKQSDDELVKPGASVKISCKVSGYTFTDHTIHWMKQRPEQGLEWIGYIYPRDGSTKYNEKFKGKATLTADKSSSTAYMQLNSLTSEDSAVYFCARRRSYYGSSFYFDVWGTGTTVSV VL: DIQMTQSTSSLSASLGDRVTISCRASQDISNYLNWYQQKPDGTVKLLIYYTSRLHSGVPSRFSGSGSGTDYSLTISNLEQEDIATYFCQQGNTLPWTFGGGTK		binds
23DKTYB19 (antibody, V domains shown) VH: QVQLKQSDAELVKPGASVKISCKVSGYTFTDHTIHWMKQRPEQGLEWIGYIYPRDGSTKYNEKFKGKATLTADKSSSTAYMQLNSLTSEDSAVCFCARTGSYAMDYWGQGTSVTVSS VL: DIVMTQSPASLAVSLGQRATISCKASQSVDYDGDSYMNWYQQKPGQPPKLLIYAASNLESGIPARFSGSGSGTDFTLNIHPVEEEDAATYYCQQSNEDPYTFGG		binds
